From US20250313646A1 (AUGMENT BIOLOGICS, published 2025)

Assays:
[1] = target: T1, full-length, biotinylated, human CD20 (Acro Biosystems) (human, UniProt P11836 1-297, biotinylated (site not stated)); test: BLI (Octet RED96e), biotinylated CD20 on biosensor, antibody at 50 nM
T1 construct: mature; No construct limits or tags are stated for the bought reagent; also called CD20 antigen
T1 sequence (looked up): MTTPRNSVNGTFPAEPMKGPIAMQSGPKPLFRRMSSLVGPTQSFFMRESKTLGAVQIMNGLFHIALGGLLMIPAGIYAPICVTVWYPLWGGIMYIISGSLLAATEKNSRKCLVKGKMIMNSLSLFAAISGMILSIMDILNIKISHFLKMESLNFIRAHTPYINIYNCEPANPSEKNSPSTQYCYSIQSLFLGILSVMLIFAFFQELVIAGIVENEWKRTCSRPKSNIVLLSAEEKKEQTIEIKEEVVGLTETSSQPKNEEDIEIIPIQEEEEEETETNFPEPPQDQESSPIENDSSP

[2] = target: T1, full-length, biotinylated, human CD20 …; test: BLI (Octet RED96e), biotinylated CD20 on biosensor, antibody at 25 nM
[3] = target: T1, full-length, biotinylated, human CD20 …; test: BLI (Octet RED96e), biotinylated CD20 on biosensor, antibody at 100 nM

B1: wildtype Rituximab (antibody)
chain 1: not shown
chain 2: QIVLSQSPAILSASPGEKVTMTCRASSSVSYIHWFQQKPGSSPKPWIYATSNLASGVPVRFSGSGSGTSYSLTISRVEAEDAATYYCQQWTSNPPTFGGGTKLEIKRTVAAPSVFIFPPSDEQLKSGTASVVCLLNNFYPREAKVQWKVDNALQSGNSQESVTEQDSKDSTYSLSSTLTLSKADYEKHKVYACEVTHQGLSSPVTKSFNRGEC
**Q.** With B1 as the binder, how does the Kd [1] read?
**A.** 0.169 nM

**Q.** And the Kd [2]?
**A.** 0.171 nM

**Q.** And the Kd [3]?
**A.** 0.169 nM
